Results as given in the supplement of paper PMC9732359.
± gives the uncertainty stated by the source.

Assay: protein stability index of a GFP-peptide fusion (yeast GPS) (PSI 1-4); higher = more stable; sorted into four equal gates, so the index is relative within each strain
In short: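 Peptides tiling yeast proteins in 17-residue segments were fused downstream of GFP, with Cherry expressed from the same plasmid. As a pooled library in yeast, mid-log cultures grown in leucine-free medium were sorted into four equal gates by GFP/Cherry fluorescence ratio. Gate plasmids were PCR-amplified and Illumina-sequenced, and barcodes linked reads to strains. Each peptide received a protein stability index equal to the sum of each gate's read frequency times its gate number.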

Row | Sequence | protein stability index (doa10∆) | protein stability index (pdr5∆) | protein stability index (san1∆) | protein stability index (ubr1∆)
1 | LDSGDDQPQSSEAKRTK [BRR2] | 3.31 ± 0.057 | 3.26 ± 0.057 | 3.25 ± 0.048 | 3.25 ± 0.043
2 | DHFLSMCQNPMQKPVPF [FAS1] | 2.93 ± 0.18 | 3.01 ± 0.14 |  | 2.42 ± 0.081
3 | LIITRKAFKNNSSKYYI [SMC4] | 2.59 ± 0.083 | 2.98 ± 0.092 | 2.66 ± 0.068 | 2.69 ± 0.11
4 | ATVVSTNHSAAASTPTT [PGD1] | 2.91 ± 0.047 | 3.12 ± 0.042 | 2.98 ± 0.035 | 3 ± 0.037
5 | LKREERQGLIHQGSGGS [SMC3] |  | 3.52 ± 0.1 |  | 
6 | AGGQRIVDDYWESLAKK [SWP82] | 1.84 ± 0.19 | 2.42 ± 0.092 | 2.45 ± 0.13 | 2.39 ± 0.15
7 | ETIIFDSELNRALFETK [RRI1] | 3.03 ± 0.14 | 2.66 ± 0.14 | 3.2 ± 0.062 | 3.35 ± 0.17
8 | DLSLIVKARHGGCDYIF [CYT1] | 2.74 ± 0.097 | 2.94 ± 0.1 | 2.72 ± 0.1 | 2.46 ± 0.061
9 | IQPKITELKKKLDDLEN [SMC1] | 3.11 ± 0.13 | 2.79 ± 0.13 | 3.11 ± 0.14 | 2.71 ± 0.14
10 | ESLRGILHVRAQYCYKN [SRP72] | 1.94 ± 0.1 | 2.36 ± 0.11 | 2.18 ± 0.22 | 2.13 ± 0.062
11 | RIAVLHQKTKTLASLSI [YGL172W/NUP49] | 2.31 ± 0.081 | 2.25 ± 0.062 | 2.26 ± 0.07 | 2.75 ± 0.066
12 | NLEESSKLDIYTQQQAL [RET1] | 2.9 ± 0.087 | 2.77 ± 0.078 | 2.47 ± 0.07 | 2.94 ± 0.079
13 | DENKASATSKPAFSFGA [YJL041W/NSP1] | 2.96 ± 0.063 | 2.98 ± 0.055 | 3 ± 0.05 | 2.97 ± 0.055
14 | SELPDIYSRDIGAELKR [SNF2] |  | 3.26 ± 0.13 | 3.38 ± 0.08 | 3.41 ± 0.18
15 | VTKDTKKYSSKNKYGEI [SRP68] | 2.82 ± 0.11 | 2.66 ± 0.099 | 2.52 ± 0.086 | 2.77 ± 0.068
16 | NHDRINISNNLQKALTV [RPN8] | 3.17 ± 0.064 | 3.29 ± 0.062 | 3.38 ± 0.038 | 3.27 ± 0.046
17 | LLDKYGKTGLSNMILGS [YML103C/NUP188] | 2.34 ± 0.078 | 2.75 ± 0.11 | 2.26 ± 0.095 | 2.12 ± 0.058
18 | MTPVIEKIAAGYMQKPV [PRP28] | 2.16 ± 0.11 | 1.93 ± 0.11 | 1.83 ± 0.14 | 2.68 ± 0.075
19 | ALNMLPSEILHLILDKL [GRR1] | 2.37 ± 0.13 | 2.07 ± 0.073 | 1.95 ± 0.13 | 2.03 ± 0.045
20 | QGVTCLHLAVGKKWFEV [NAS6] | 2.76 ± 0.23 |  |  | 3.14 ± 0.14

Row | Sequence | protein stability index (doa10∆) | protein stability index (pdr5∆) | protein stability index (san1∆) | protein stability index (ubr1∆)
21 | SLSNPNSTATMQHNPLA [PGD1] | 2.86 ± 0.04 | 3.1 ± 0.039 | 2.96 ± 0.034 | 2.967 ± 0.029
22 | ECLPAEGHDWKAPTKLD [DIS3] | 3.27 ± 0.098 | 3.21 ± 0.082 | 3.35 ± 0.071 | 3.23 ± 0.079
23 | KQERSKQERLKENEESL [PRP28] | 3.21 ± 0.2 | 3.62 ± 0.17 | 3.22 ± 0.13 | 3.31 ± 0.11
24 | DVDPEFYLKYVDIRVGK [RET1] | 3.31 ± 0.28 | 2.79 ± 0.16 | 2.4 ± 0.14 | 2.54 ± 0.1
25 | VVLGVEKRATSPLLESD [PUP2] | 2.98 ± 0.16 | 2.84 ± 0.13 | 3.15 ± 0.13 | 2.84 ± 0.11
26 | DEDEDNDLDEDDIYDIS [RPN4] |  | 3.46 ± 0.2 | 3.56 ± 0.11 | 3.33 ± 0.15
27 | LESINEGNQIIVFVHSR [BRR2] | 1.76 ± 0.073 | 1.88 ± 0.064 | 1.62 ± 0.066 | 1.76 ± 0.071
28 | NNLFRIIAELSFLKVDP [YJL039C/NUP192] | 3.08 ± 0.054 | 3.02 ± 0.12 | 3.24 ± 0.093 | 3.07 ± 0.086
29 | KAELPQWYTLQSQLNVT [MED8] | 2.77 ± 0.055 | 2.9 ± 0.047 | 2.8 ± 0.05 | 2.69 ± 0.056
30 | KFLNFRPPNGIKNFKSL [SSN2] | 1.87 ± 0.04 | 1.83 ± 0.04 | 2.16 ± 0.061 | 1.79 ± 0.031
31 | QLISAVLVSMGSSNKAV [YJL039C/NUP192] | 1.47 ± 0.23 | 1.69 ± 0.14 |  | 1.23 ± 0.084
32 | NILWAIYNSASKASMQK [YCS4] | 1.66 ± 0.13 | 2.11 ± 0.13 | 1.58 ± 0.22 | 2.18 ± 0.077
33 | ENNYKKRLLGTAFKSSP [RPS23A] | 2.32 ± 0.047 | 2.6 ± 0.049 | 2.22 ± 0.062 | 2.44 ± 0.036
34 | TRQASDLASSKEVLAKI [RPN5] | 2.92 ± 0.11 | 2.96 ± 0.06 | 2.99 ± 0.077 | 2.85 ± 0.076
35 | NFEATKKSVLKQVQDFE [COR1] | 2.76 ± 0.13 | 2.39 ± 0.25 | 3.07 ± 0.15 | 2.91 ± 0.072
36 | YKNLDRGFSKDLKSKAD [RRP6] | 3.05 ± 0.1 | 3.27 ± 0.15 | 3.31 ± 0.065 | 3.53 ± 0.099
37 | DFQPTELFDILSTSEDV [IRR1] | 3.04 ± 0.11 | 2.42 ± 0.1 | 2.82 ± 0.074 | 3.08 ± 0.081
38 | HAMGGREGLIDTAVKTA [RPO21] | 1.24 ± 0.076 | 1.35 ± 0.065 | 1.23 ± 0.15 | 1.17 ± 0.054
39 | NAQSKLSLTLNTHYHAD [SNF2] | 2.76 ± 0.096 | 2.81 ± 0.11 | 2.73 ± 0.13 | 3.09 ± 0.085
